Measurements as given in the RNAGym collection of RNA variant scans (doi:10.1093/molbev/msab373).

B1: Azoarcus group I ribozyme (parent)
chain: GUGCCUUGCGCCGGGAAACCACGCAAGGGAUGGUGUCAAAUUCGGCGAAACCUAAGCGCCCGCCCGGGCGUAUGGCAACGCCGAGCCAAGCUUCGGCGCCUGCGCCGAUGAAGGUGUAGAGACUAGACGGCACCCACCUAAGGCAAACGCUAUGGUGAAGGCAUAGUCCAGGGAGUGGCGAAAGUCACACAAACCGG

Variants of: B1
Test: reverse-splicing fitness (ratio to wild type); higher = more active; in vitro selection; Mg2+ level not given
In short: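 An in vitro group I ribozyme library with randomized positions was T7-transcribed and gel-purified. In triplicate, 10 pmol RNA in EPPS pH 7.5 was reacted with 50 pmoles of a 30-nt RNA substrate for 1 h at 37 °C across several added MgCl2 levels (1–48 mM), then stopped with EDTA. Products were reverse transcribed from a substrate-complementary primer, PCR-amplified and sequenced (HiSeq 4000). Fitness is a variant's read proportion after selection over that before, normalised to wild type.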
C82U A111U A120U A145C C150U gave a reverse-splicing fitness of 0.00815. In the case of C82U A111U A120U A145C C150A, the reverse-splicing fitness is reported as 0.00466. Variant C82U A111U A120U A145C C150G has a reverse-splicing fitness of 0.00588. Work on C82U A111U A120U C150U U176C yielded a reverse-splicing fitness of 0.0088. For C82U A111U A120U C150U U176A, the reverse-splicing fitness was 0.00668. For C82U A111U A120U C150U U176G, the reverse-splicing fitness was 0.00363. With C82U A111U A120U C150A C169A U176C the reverse-splicing fitness was 0.00306. Work on C82U A111U A120U C150A C169A U176G yielded a reverse-splicing fitness of 0.00224. C82U A111U A120U C150A C169A U176A gave a reverse-splicing fitness of 0.00372. C82U A111U A120U A145G C150U U176A showed a reverse-splicing fitness of 0.00787. Variant C82U A111U A120U A145G C150U U176G has a reverse-splicing fitness of 0.00322. For C82U A111U A120U A145G C150U U176C, the reverse-splicing fitness was 0.0115. For C82U A111U A120U A145G C150G C169A U176C, the reverse-splicing fitness was 0.00711. Work on C82U A111U A120U A145G C150G C169A U176A yielded a reverse-splicing fitness of 0.0098. C82U A111U A120U A145G C150G C169A U176G showed a reverse-splicing fitness of 0.00474. C82U A111U A120U A145G showed a reverse-splicing fitness of 0.0251. With C82U A111U A120U A145U the reverse-splicing fitness was 0.0252. C82U A111U A120U A145C gave a reverse-splicing fitness of 0.0211. With C82U A111U A120U A145C C150G C169G U176G the reverse-splicing fitness was 0.00175. In the case of C82U A111U A120U A145C C150G C169G U176C, the reverse-splicing fitness is reported as 0.00216. C82U A111U A120U A145C C150G C169G U176A gave a reverse-splicing fitness of 0.00245. With C82U A111U A120U A145C C169A U176G the reverse-splicing fitness was 0.00173. Variant C82U A111U A120U A145C C169A U176C has a reverse-splicing fitness of 0.00199. Variant C82U A111U A120U A145C C169A U176A has a reverse-splicing fitness of 0.00226. Variant C82U A111U A120U C150G C169U has a reverse-splicing fitness of 0.00478. Variant C82U A111U A120U C150G C169G has a reverse-splicing fitness of 0.00584. C82U A111U A120U C150G C169A gave a reverse-splicing fitness of 0.00657. In the case of C82U A111U A120U A145U C150A U176G, the reverse-splicing fitness is reported as 0.00252. For C82U A111U A120U A145U C150A U176C, the reverse-splicing fitness was 0.00477. For C82U A111U A120U A145U C150A U176A, the reverse-splicing fitness was 0.00357. C82U A111U A120G C150U U176A showed a reverse-splicing fitness of 0.0102. Variant C82U A111U A120G C150U U176C has a reverse-splicing fitness of 0.0136. Variant C82U A111U A120G C150U U176G has a reverse-splicing fitness of 0.00537. Variant C82U A111U A120U A145C C150A U176C has a reverse-splicing fitness of 0.00387. Variant C82U A111U A120U A145C C150A U176A has a reverse-splicing fitness of 0.00354. For C82U A111U A120U A145C C150A U176G, the reverse-splicing fitness was 0.00245. Work on C82U A111U A120G A145U U176C yielded a reverse-splicing fitness of 0.0131. C82U A111U A120G A145U U176G showed a reverse-splicing fitness of 0.0045. Variant C82U A111U A120G A145U U176A has a reverse-splicing fitness of 0.012. C82U A111U A120U C150A C169U U176G gave a reverse-splicing fitness of 0.00301. With C82U A111U A120U C150A C169U U176A the reverse-splicing fitness was 0.0059. Work on C82U A111U A120U C150A C169U U176C yielded a reverse-splicing fitness of 0.00379. Variant C82U A111U A120U C150U C169A U176G has a reverse-splicing fitness of 0.00205. For C82U A111U A120U C150U C169A U176C, the reverse-splicing fitness was 0.00314. In the case of C82U A111U A120U C150U C169A U176A, the reverse-splicing fitness is reported as 0.0038. Work on C82U A111U A120U C150G U176C yielded a reverse-splicing fitness of 0.005. C82U A111U A120U C150G U176G showed a reverse-splicing fitness of 0.00237. In the case of C82U A111U A120U C150G U176A, the reverse-splicing fitness is reported as 0.00352. Work on C82U A111U A120U A145C C150G U176G yielded a reverse-splicing fitness of 0.00213. In the case of C82U A111U A120U A145C C150G U176A, the reverse-splicing fitness is reported as 0.00287. With C82U A111U A120U A145C C150G U176C the reverse-splicing fitness was 0.00408. C82U A111U A120U A145C C150G C169A U176G gave a reverse-splicing fitness of 0.00281. Variant C82U A111U A120U A145C C150G C169A U176C has a reverse-splicing fitness of 0.00247. With C82U A111U A120U A145C C150G C169A U176A the reverse-splicing fitness was 0.00264. Work on C82U A111U A120U C150U C169G U176A yielded a reverse-splicing fitness of 0.00732. Variant C82U A111U A120U C150U C169G U176G has a reverse-splicing fitness of 0.00205. Work on C82U A111U A120U C150U C169G U176C yielded a reverse-splicing fitness of 0.00317. In the case of C82U A111U A120G C150G U176A, the reverse-splicing fitness is reported as 0.00524. For C82U A111U A120G C150G U176C, the reverse-splicing fitness was 0.00776. C82U A111U A120G C150G U176G gave a reverse-splicing fitness of 0.00288. Variant C82U A111U A120U C150G C169A U176G has a reverse-splicing fitness of 0.00272. C82U A111U A120U C150G C169A U176C gave a reverse-splicing fitness of 0.00404. C82U A111U A120U C150G C169A U176A gave a reverse-splicing fitness of 0.004. C82U A111U A120U A145U C150U C169U U176C gave a reverse-splicing fitness of 0.00392. Work on C82U A111U A120U A145U C150U C169U U176A yielded a reverse-splicing fitness of 0.00293. C82U A111U A120U A145U C150U C169U U176G gave a reverse-splicing fitness of 0.00227. Variant C82U A111U A120U A145U C169U U176A has a reverse-splicing fitness of 0.00286. C82U A111U A120U A145U C169U U176C gave a reverse-splicing fitness of 0.00278. Work on C82U A111U A120U A145U C169U U176G yielded a reverse-splicing fitness of 0.00177. For C82U A111U A120U A145C C150U C169U U176C, the reverse-splicing fitness was 0.00256. For C82U A111U A120U A145C C150U C169U U176G, the reverse-splicing fitness was 0.00212. With C82U A111U A120U A145C C150U C169U U176A the reverse-splicing fitness was 0.00211. With C82U A111U A120U C150G the reverse-splicing fitness was 0.00645. C82U A111U A120U C150U gave a reverse-splicing fitness of 0.0175. C82U A111U A120U C150A gave a reverse-splicing fitness of 0.00701. C82U A111U A120U A145U C150G C169G U176A showed a reverse-splicing fitness of 0.0029. For C82U A111U A120U A145U C150G C169G U176G, the reverse-splicing fitness was 0.00209. For C82U A111U A120U A145U C150G C169G U176C, the reverse-splicing fitness was 0.00288. In the case of C82U A111U A120U A145G C150U C169U U176C, the reverse-splicing fitness is reported as 0.00399. C82U A111U A120U A145G C150U C169U U176G showed a reverse-splicing fitness of 0.00209. With C82U A111U A120U A145G C150U C169U U176A the reverse-splicing fitness was 0.00396. Work on C82U A111U A120U A145G C150G U176C yielded a reverse-splicing fitness of 0.00721. For C82U A111U A120U A145G C150G U176G, the reverse-splicing fitness was 0.00324.
